From patent US12679878B2, “CRF2 receptor agonists and their use in therapy” (SANOFI, priority 2020, dated 2026)
Starred links: 1 amine or outer side, 2 acyl side, 3 side chain; linkers in the order of their positions; H or OH if unused. Non-standard residues stand in square brackets, D forms with d. Groups on a side chain read outwards from the residue. No end group written: not given here. *: point of attachment. C16 diacid = O=C(O)CCCCCCCCCCCCCCC(=O)*; γGlu = O=C(O)[C@H](CCC(=O)[*:2])N[*:1]; Palmitoyl = CCCCCCCCCCCCCCCC(=O)*; AEEA = NCCOCCOCC(=O)O; Aib = CC(C)(N)C(=O)O

T1: CRF1R receptor (anti-target) (UniProt P34998 24-415, limits assumed)
T1 sequence (looked up): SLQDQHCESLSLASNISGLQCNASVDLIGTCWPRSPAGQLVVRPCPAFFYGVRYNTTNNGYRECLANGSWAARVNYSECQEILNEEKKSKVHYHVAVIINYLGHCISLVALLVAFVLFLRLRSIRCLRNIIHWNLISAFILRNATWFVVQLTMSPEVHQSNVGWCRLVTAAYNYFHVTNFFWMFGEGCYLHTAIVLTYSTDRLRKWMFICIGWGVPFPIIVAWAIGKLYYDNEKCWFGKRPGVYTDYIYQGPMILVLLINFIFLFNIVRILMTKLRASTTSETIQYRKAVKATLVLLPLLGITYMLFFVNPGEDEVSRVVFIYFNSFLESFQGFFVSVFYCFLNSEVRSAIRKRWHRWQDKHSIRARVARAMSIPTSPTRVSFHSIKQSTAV


Assays:
[1] = molecular target: human corticotropin-releasing factor 2α (CRF2α receptor) (human), Q13324; assay: cell-based or functional assay
[2] = molecular target: T1, CRF1R receptor (anti-target); assay: cell-based or functional assay

human corticotropin-releasing factor 2α (CRF2α receptor) (human), Q13324, sequence (Q13324 20-411): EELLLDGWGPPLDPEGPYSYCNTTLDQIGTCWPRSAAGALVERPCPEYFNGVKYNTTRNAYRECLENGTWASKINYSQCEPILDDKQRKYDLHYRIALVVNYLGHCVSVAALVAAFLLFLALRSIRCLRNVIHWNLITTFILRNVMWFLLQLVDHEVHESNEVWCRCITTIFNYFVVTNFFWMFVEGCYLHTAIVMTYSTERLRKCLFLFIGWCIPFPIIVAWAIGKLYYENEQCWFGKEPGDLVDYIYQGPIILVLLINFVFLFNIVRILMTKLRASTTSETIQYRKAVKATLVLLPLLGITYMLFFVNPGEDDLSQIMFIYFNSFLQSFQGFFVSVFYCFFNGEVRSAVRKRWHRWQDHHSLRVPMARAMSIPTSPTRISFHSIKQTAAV

Binder	EC50 [nM], 0% HSA (cAMP, HTRF) [1] [nM]	EC50 [nM] 0% HSA (cAMP, HTRF) [2] [nM]	Emax (%) (100% = Sauvagine at 100 nM) [2]
IVLSLD[dV]PIGLK([γGlu-Palmitoyl])QILLKQERQKK[Aib]REQAETNKQILAQV-NH2 (N-terminus assumed; SMILES CCCCCCCCCCCCCCCC(=O)N[C@@H](CCC(=O)NCCCC[C@H](NC(=O)[C@H](CC(C)C)NC(=O)CNC(=O)[C@@H](NC(=O)[C@@H]1CCCN1C(=O)[C@H](NC(=O)[C@H](CC(=O)O)NC(=O)[C@H](CC(C)C)NC(=O)[C@H](CO)NC(=O)[C@H](CC(C)C)NC(=O)[C@@H](NC(=O)[C@@H](N)[C@@H](C)CC)C(C)C)C(C)C)[C@@H](C)CC)C(=O)N[C@@H](CCC(N)=O)C(=O)N[C@H](C(=O)N[C@@H](CC(C)C)C(=O)N[C@@H](CC(C)C)C(=O)N[C@@H](CCCCN)C(=O)N[C@@H](CCC(N)=O)C(=O)N[C@@H](CCC(=O)O)C(=O)N[C@@H](CCCNC(=N)N)C(=O)N[C@@H](CCC(N)=O)C(=O)N[C@@H](CCCCN)C(=O)N[C@@H](CCCCN)C(=O)NC(C)(C)C(=O)N[C@@H](CCCNC(=N)N)C(=O)N[C@@H](CCC(=O)O)C(=O)N[C@@H](CCC(N)=O)C(=O)N[C@@H](C)C(=O)N[C@@H](CCC(=O)O)C(=O)N[C@H](C(=O)N[C@@H](CC(N)=O)C(=O)N[C@@H](CCCCN)C(=O)N[C@@H](CCC(N)=O)C(=O)N[C@H](C(=O)N[C@@H](CC(C)C)C(=O)N[C@@H](C)C(=O)N[C@@H](CCC(N)=O)C(=O)N[C@H](C(N)=O)C(C)C)[C@@H](C)CC)[C@@H](C)O)[C@@H](C)CC)C(=O)O) [peptide of SEQ ID NO: 215]	0.15	–	–
IVLSLD[dV]PIKLK([AEEA-AEEA-γGlu-γGlu-Palmitoyl])QILLKQERQKK[Aib]RQKAEKNKQILAQV-NH2 (N-terminus assumed; SMILES CCCCCCCCCCCCCCCC(=O)N[C@@H](CCC(=O)N[C@@H](CCC(=O)NCCOCCOCC(=O)NCCOCCOCC(=O)NCCCC[C@H](NC(=O)[C@H](CC(C)C)NC(=O)[C@H](CCCCN)NC(=O)[C@@H](NC(=O)[C@@H]1CCCN1C(=O)[C@H](NC(=O)[C@H](CC(=O)O)NC(=O)[C@H](CC(C)C)NC(=O)[C@H](CO)NC(=O)[C@H](CC(C)C)NC(=O)[C@@H](NC(=O)[C@@H](N)[C@@H](C)CC)C(C)C)C(C)C)[C@@H](C)CC)C(=O)N[C@@H](CCC(N)=O)C(=O)N[C@H](C(=O)N[C@@H](CC(C)C)C(=O)N[C@@H](CC(C)C)C(=O)N[C@@H](CCCCN)C(=O)N[C@@H](CCC(N)=O)C(=O)N[C@@H](CCC(=O)O)C(=O)N[C@@H](CCCNC(=N)N)C(=O)N[C@@H](CCC(N)=O)C(=O)N[C@@H](CCCCN)C(=O)N[C@@H](CCCCN)C(=O)NC(C)(C)C(=O)N[C@@H](CCCNC(=N)N)C(=O)N[C@@H](CCC(N)=O)C(=O)N[C@@H](CCCCN)C(=O)N[C@@H](C)C(=O)N[C@@H](CCC(=O)O)C(=O)N[C@@H](CCCCN)C(=O)N[C@@H](CC(N)=O)C(=O)N[C@@H](CCCCN)C(=O)N[C@@H](CCC(N)=O)C(=O)N[C@H](C(=O)N[C@@H](CC(C)C)C(=O)N[C@@H](C)C(=O)N[C@@H](CCC(N)=O)C(=O)N[C@H](C(N)=O)C(C)C)[C@@H](C)CC)[C@@H](C)CC)C(=O)O)C(=O)O) [peptide of SEQ ID NO: 211]	0.94	–	–
IVLSLD[dV]PIKLK([γGlu-C16 diacid])QILLKQERQKKQREKAEKNKQILAQV-NH2 (N-terminus assumed; SMILES CC[C@H](C)[C@H](N)C(=O)N[C@H](C(=O)N[C@@H](CC(C)C)C(=O)N[C@@H](CO)C(=O)N[C@@H](CC(C)C)C(=O)N[C@@H](CC(=O)O)C(=O)N[C@@H](C(=O)N1CCC[C@H]1C(=O)N[C@H](C(=O)N[C@@H](CCCCN)C(=O)N[C@@H](CC(C)C)C(=O)N[C@@H](CCCCNC(=O)CC[C@H](NC(=O)CCCCCCCCCCCCCCC(=O)O)C(=O)O)C(=O)N[C@@H](CCC(N)=O)C(=O)N[C@H](C(=O)N[C@@H](CC(C)C)C(=O)N[C@@H](CC(C)C)C(=O)N[C@@H](CCCCN)C(=O)N[C@@H](CCC(N)=O)C(=O)N[C@@H](CCC(=O)O)C(=O)N[C@@H](CCCNC(=N)N)C(=O)N[C@@H](CCC(N)=O)C(=O)N[C@@H](CCCCN)C(=O)N[C@@H](CCCCN)C(=O)N[C@@H](CCC(N)=O)C(=O)N[C@@H](CCCNC(=N)N)C(=O)N[C@@H](CCC(=O)O)C(=O)N[C@@H](CCCCN)C(=O)N[C@@H](C)C(=O)N[C@@H](CCC(=O)O)C(=O)N[C@@H](CCCCN)C(=O)N[C@@H](CC(N)=O)C(=O)N[C@@H](CCCCN)C(=O)N[C@@H](CCC(N)=O)C(=O)N[C@H](C(=O)N[C@@H](CC(C)C)C(=O)N[C@@H](C)C(=O)N[C@@H](CCC(N)=O)C(=O)N[C@H](C(N)=O)C(C)C)[C@@H](C)CC)[C@@H](C)CC)[C@@H](C)CC)C(C)C)C(C)C) [peptide of SEQ ID NO: 191]	2.68	> 100	12.5
IVLSLD[dV]PIKLK([γGlu-Palmitoyl])QILLKQERQKKQREKAEKNKQILAQV-NH2 (N-terminus assumed; SMILES CCCCCCCCCCCCCCCC(=O)N[C@@H](CCC(=O)NCCCC[C@H](NC(=O)[C@H](CC(C)C)NC(=O)[C@H](CCCCN)NC(=O)[C@@H](NC(=O)[C@@H]1CCCN1C(=O)[C@H](NC(=O)[C@H](CC(=O)O)NC(=O)[C@H](CC(C)C)NC(=O)[C@H](CO)NC(=O)[C@H](CC(C)C)NC(=O)[C@@H](NC(=O)[C@@H](N)[C@@H](C)CC)C(C)C)C(C)C)[C@@H](C)CC)C(=O)N[C@@H](CCC(N)=O)C(=O)N[C@H](C(=O)N[C@@H](CC(C)C)C(=O)N[C@@H](CC(C)C)C(=O)N[C@@H](CCCCN)C(=O)N[C@@H](CCC(N)=O)C(=O)N[C@@H](CCC(=O)O)C(=O)N[C@@H](CCCNC(=N)N)C(=O)N[C@@H](CCC(N)=O)C(=O)N[C@@H](CCCCN)C(=O)N[C@@H](CCCCN)C(=O)N[C@@H](CCC(N)=O)C(=O)N[C@@H](CCCNC(=N)N)C(=O)N[C@@H](CCC(=O)O)C(=O)N[C@@H](CCCCN)C(=O)N[C@@H](C)C(=O)N[C@@H](CCC(=O)O)C(=O)N[C@@H](CCCCN)C(=O)N[C@@H](CC(N)=O)C(=O)N[C@@H](CCCCN)C(=O)N[C@@H](CCC(N)=O)C(=O)N[C@H](C(=O)N[C@@H](CC(C)C)C(=O)N[C@@H](C)C(=O)N[C@@H](CCC(N)=O)C(=O)N[C@H](C(N)=O)C(C)C)[C@@H](C)CC)[C@@H](C)CC)C(=O)O) [peptide of SEQ ID NO: 213]	4.48	–	–

Other lines, results leading:

EC50 [nM], 0% HSA (cAMP, HTRF) [1] [nM]	EC50 [nM] 0% HSA (cAMP, HTRF) [2] [nM]	Emax (%) (100% = Sauvagine at 100 nM) [2]	Binder
0.19	–	–	IVLSLD[dV]PIGLK([AEEA-AEEA-γGlu-Palmitoyl])QILLKQERQKK[Aib]REQAETNKQILAQV-NH2 (N-terminus assumed; SMILES CCCCCCCCCCCCCCCC(=O)N[C@@H](CCC(=O)NCCOCCOCC(=O)NCCOCCOCC(=O)NCCCC[C@H](NC(=O)[C@H](CC(C)C)NC(=O)CNC(=O)[C@@H](NC(=O)[C@@H]1CCCN1C(=O)[C@H](NC(=O)[C@H](CC(=O)O)NC(=O)[C@H](CC(C)C)NC(=O)[C@H](CO)NC(=O)[C@H](CC(C)C)NC(=O)[C@@H](NC(=O)[C@@H](N)[C@@H](C)CC)C(C)C)C(C)C)[C@@H](C)CC)C(=O)N[C@@H](CCC(N)=O)C(=O)N[C@H](C(=O)N[C@@H](CC(C)C)C(=O)N[C@@H](CC(C)C)C(=O)N[C@@H](CCCCN)C(=O)N[C@@H](CCC(N)=O)C(=O)N[C@@H](CCC(=O)O)C(=O)N[C@@H](CCCNC(=N)N)C(=O)N[C@@H](CCC(N)=O)C(=O)N[C@@H](CCCCN)C(=O)N[C@@H](CCCCN)C(=O)NC(C)(C)C(=O)N[C@@H](CCCNC(=N)N)C(=O)N[C@@H](CCC(=O)O)C(=O)N[C@@H](CCC(N)=O)C(=O)N[C@@H](C)C(=O)N[C@@H](CCC(=O)O)C(=O)N[C@H](C(=O)N[C@@H](CC(N)=O)C(=O)N[C@@H](CCCCN)C(=O)N[C@@H](CCC(N)=O)C(=O)N[C@H](C(=O)N[C@@H](CC(C)C)C(=O)N[C@@H](C)C(=O)N[C@@H](CCC(N)=O)C(=O)N[C@H](C(N)=O)C(C)C)[C@@H](C)CC)[C@@H](C)O)[C@@H](C)CC)C(=O)O) [peptide of SEQ ID NO: 216]
0.16	–	–	IVLSLD[dV]PIGLK([AEEA-AEEA-γGlu-γGlu-Palmitoyl])QILLKQERQKK[Aib]REQAETNKQILAQV-NH2 (N-terminus assumed; SMILES CCCCCCCCCCCCCCCC(=O)N[C@@H](CCC(=O)N[C@@H](CCC(=O)NCCOCCOCC(=O)NCCOCCOCC(=O)NCCCC[C@H](NC(=O)[C@H](CC(C)C)NC(=O)CNC(=O)[C@@H](NC(=O)[C@@H]1CCCN1C(=O)[C@H](NC(=O)[C@H](CC(=O)O)NC(=O)[C@H](CC(C)C)NC(=O)[C@H](CO)NC(=O)[C@H](CC(C)C)NC(=O)[C@@H](NC(=O)[C@@H](N)[C@@H](C)CC)C(C)C)C(C)C)[C@@H](C)CC)C(=O)N[C@@H](CCC(N)=O)C(=O)N[C@H](C(=O)N[C@@H](CC(C)C)C(=O)N[C@@H](CC(C)C)C(=O)N[C@@H](CCCCN)C(=O)N[C@@H](CCC(N)=O)C(=O)N[C@@H](CCC(=O)O)C(=O)N[C@@H](CCCNC(=N)N)C(=O)N[C@@H](CCC(N)=O)C(=O)N[C@@H](CCCCN)C(=O)N[C@@H](CCCCN)C(=O)NC(C)(C)C(=O)N[C@@H](CCCNC(=N)N)C(=O)N[C@@H](CCC(=O)O)C(=O)N[C@@H](CCC(N)=O)C(=O)N[C@@H](C)C(=O)N[C@@H](CCC(=O)O)C(=O)N[C@H](C(=O)N[C@@H](CC(N)=O)C(=O)N[C@@H](CCCCN)C(=O)N[C@@H](CCC(N)=O)C(=O)N[C@H](C(=O)N[C@@H](CC(C)C)C(=O)N[C@@H](C)C(=O)N[C@@H](CCC(N)=O)C(=O)N[C@H](C(N)=O)C(C)C)[C@@H](C)CC)[C@@H](C)O)[C@@H](C)CC)C(=O)O)C(=O)O) [peptide of SEQ ID NO: 217]
